Positions count from the first letter of the chain named.
B1: C8-H241 (antibody, human IgG2, kappa, V domains shown)
VH: QVQLVQSGAEVKKPGASVKVSCKASGYTFTDYYMHWVRQAPGQGLEWMGRVNPNRRGTTYNQKFEGRVTMTTDTSTSTAYMELRSLRSDDTAVYYCARANWLDYWGQGTTVTVSS
VL: DIQMTQSPSSLSASVGDRVTITCSVSSSVSSIYLHWYQQKPGKAPKLLIYSTSNLASGVPSRFSGSGSGTDFTLTISSLQPEDFATYYCQVYSGYPLTFGGGTKVEIKR
notes: Called IgG4, kappa; also called Mab C8-H241
B2: C8-co-16 (antibody, human IgG2, kappa, V domains shown)
VH: B1 VH with N54Y, R56G, G57S, W101I
VL: B1 VL with S30R, S93R
notes: Called IgG4, kappa

Experiments:
Rat c-Met-Flis-Fc ECD = target: T1, Rat c-Met-Flis-Fc ECD (rat); assay: SPR (Biacore), antibody captured
T1 construct: also called Rat cMet-ECD-Fc-Flis; rat c-Met ECD
T1 sequence (chain, as listed by the source limits assumed): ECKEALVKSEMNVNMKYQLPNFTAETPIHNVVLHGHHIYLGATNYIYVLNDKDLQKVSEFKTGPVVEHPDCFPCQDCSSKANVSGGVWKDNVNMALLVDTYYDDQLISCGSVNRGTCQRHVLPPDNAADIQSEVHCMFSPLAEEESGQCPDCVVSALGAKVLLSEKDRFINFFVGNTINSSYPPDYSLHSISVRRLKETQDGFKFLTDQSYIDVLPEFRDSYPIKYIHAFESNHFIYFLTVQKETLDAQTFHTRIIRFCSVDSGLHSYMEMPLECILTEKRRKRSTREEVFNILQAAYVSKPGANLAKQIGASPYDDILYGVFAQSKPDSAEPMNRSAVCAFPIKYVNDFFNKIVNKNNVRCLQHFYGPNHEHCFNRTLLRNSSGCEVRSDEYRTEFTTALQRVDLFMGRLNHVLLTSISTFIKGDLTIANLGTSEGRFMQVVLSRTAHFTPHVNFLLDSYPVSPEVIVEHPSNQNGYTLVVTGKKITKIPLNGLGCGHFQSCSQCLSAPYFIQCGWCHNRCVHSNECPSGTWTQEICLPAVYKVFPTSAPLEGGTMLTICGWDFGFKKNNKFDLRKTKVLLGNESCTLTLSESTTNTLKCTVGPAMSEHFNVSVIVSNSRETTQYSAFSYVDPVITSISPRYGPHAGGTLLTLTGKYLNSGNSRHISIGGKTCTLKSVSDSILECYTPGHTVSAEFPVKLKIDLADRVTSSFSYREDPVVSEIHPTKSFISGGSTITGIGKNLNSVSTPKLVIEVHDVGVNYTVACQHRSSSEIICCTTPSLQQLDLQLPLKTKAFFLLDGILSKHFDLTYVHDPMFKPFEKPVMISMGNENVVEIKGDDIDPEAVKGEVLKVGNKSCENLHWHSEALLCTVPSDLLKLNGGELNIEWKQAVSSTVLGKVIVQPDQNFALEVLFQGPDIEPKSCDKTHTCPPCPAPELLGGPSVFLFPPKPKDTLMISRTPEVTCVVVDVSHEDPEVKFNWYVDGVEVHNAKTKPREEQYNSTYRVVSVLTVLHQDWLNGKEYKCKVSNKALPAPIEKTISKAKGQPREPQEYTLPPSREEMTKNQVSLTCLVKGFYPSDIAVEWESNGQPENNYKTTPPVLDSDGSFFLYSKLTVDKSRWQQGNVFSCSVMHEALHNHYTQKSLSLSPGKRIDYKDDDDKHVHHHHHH
Description: (§1) A Biacore® 2000 instrument is used to measure the binding kinetics of c-Met antibodies to human, cynomolgus monkey, and rat c-Met ECDs. Measurements are performed at 25° C. Samples are dissolved in HBS-EP buffer (150 mM sodium chloride, 3 mM EDTA, 0.005% (w/v) surfactant P-20, and 10 mM N-2-hydroxyethylpiperazine-N′-2-ethanesulfonic acid (HEPES) at pH 7.4; #BR-1001-88).
(§2) Binding is evaluated using multiple cycles. Each cycle is performed at a flow rate of 50 μL/min., and consists of the following steps: injection of about 10 μL of a c-Met antibody at 10 μg/mL aiming at a capture of 40-100 RUs, injection of 250 μL of human, cynomolgus, or rat c-Met-Flis-Fc ECD (starting at 100 nM and using two-fold serial dilutions for each cycle) followed by 20 min. for dissociation, and regeneration using about 30 μL of 10 mM glycine hydrochloride, pH 1.5. Association and dissociation rates for each cycle are evaluated using a “1:1 (Langmuir) binding” model in the BIAevaluation software, version 4.1.

mouse c-Met ECD = target: T2, mouse c-Met ECD (mouse, UniProt P16056 25-931); assay: ELISA, coated ECD (data not shown)
T2 construct: extracellular domain
T2 sequence (P16056 25-931): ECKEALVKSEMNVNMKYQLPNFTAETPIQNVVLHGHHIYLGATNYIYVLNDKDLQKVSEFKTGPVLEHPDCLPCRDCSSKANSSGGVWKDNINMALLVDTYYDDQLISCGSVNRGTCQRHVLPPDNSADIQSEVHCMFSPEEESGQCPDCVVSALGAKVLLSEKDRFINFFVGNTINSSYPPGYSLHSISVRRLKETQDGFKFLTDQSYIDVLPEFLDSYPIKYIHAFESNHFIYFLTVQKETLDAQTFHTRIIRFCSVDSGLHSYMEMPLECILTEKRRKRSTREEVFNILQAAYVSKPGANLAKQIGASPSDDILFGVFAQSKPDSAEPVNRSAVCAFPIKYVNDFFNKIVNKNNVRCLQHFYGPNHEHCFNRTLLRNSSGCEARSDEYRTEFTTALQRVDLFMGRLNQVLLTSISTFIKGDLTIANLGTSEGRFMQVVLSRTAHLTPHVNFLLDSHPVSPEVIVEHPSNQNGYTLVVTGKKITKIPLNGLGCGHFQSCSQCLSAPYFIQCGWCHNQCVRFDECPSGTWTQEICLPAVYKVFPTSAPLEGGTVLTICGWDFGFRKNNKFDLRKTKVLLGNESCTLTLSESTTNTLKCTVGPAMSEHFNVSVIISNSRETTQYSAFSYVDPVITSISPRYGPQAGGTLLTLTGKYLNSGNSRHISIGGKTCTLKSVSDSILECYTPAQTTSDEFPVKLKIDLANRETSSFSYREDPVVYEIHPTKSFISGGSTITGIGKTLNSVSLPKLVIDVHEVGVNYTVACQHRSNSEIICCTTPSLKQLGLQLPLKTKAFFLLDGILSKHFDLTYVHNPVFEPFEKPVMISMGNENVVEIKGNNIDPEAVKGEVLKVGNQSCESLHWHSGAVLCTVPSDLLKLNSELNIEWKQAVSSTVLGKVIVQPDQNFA

Human c-Met-Flis-Fc ECD [1] = target: T3, Human c-Met-Flis-Fc ECD (human); assay: ELISA, coated ECD-Fc, antibody 0.000 ng/mL
T3 construct: also called human c-Met extracellular domain (ECD)-Fc-Flis fusion; Human cMet-ECD-Fc-Flis
T3 sequence (chain, as listed by the source limits assumed): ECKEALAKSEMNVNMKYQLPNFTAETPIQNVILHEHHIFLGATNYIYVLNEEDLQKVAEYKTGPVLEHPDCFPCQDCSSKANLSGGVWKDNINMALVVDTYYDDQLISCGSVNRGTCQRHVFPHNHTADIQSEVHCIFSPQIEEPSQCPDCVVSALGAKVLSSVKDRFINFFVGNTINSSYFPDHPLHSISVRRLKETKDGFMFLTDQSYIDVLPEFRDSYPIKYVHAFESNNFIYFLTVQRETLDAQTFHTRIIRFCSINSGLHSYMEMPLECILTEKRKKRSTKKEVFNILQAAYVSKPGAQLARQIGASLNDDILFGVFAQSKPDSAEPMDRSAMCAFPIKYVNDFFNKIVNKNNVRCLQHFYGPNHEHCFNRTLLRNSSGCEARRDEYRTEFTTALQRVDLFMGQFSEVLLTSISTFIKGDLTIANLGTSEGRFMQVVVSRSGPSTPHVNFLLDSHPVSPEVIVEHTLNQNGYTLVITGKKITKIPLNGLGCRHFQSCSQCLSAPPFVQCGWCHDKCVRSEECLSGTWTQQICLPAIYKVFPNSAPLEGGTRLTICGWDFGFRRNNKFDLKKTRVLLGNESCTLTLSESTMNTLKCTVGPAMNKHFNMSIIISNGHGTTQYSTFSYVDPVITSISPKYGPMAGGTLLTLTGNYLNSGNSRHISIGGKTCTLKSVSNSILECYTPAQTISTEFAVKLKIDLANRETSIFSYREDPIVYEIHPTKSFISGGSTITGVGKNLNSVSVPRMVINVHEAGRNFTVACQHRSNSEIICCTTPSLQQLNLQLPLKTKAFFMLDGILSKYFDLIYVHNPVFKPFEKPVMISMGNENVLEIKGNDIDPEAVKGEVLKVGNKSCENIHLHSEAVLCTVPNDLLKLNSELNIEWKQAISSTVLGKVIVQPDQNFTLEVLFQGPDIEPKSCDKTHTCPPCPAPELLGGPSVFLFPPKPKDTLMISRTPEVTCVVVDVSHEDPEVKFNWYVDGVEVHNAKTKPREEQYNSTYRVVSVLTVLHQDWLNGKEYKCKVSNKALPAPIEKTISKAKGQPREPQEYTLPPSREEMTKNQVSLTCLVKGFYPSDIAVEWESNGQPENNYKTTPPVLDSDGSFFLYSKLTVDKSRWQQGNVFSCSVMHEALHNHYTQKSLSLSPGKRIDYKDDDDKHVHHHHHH
Description: (§3) Wells of 96-well EIA/RIA high binding plates (Costar, #2592) are coated with 100 μL of 1 μg/mL human c-Met extracellular domain (ECD)-Fc-Flis fusion (SEQ ID NO:72), RON-ECD-Fc (R&D Systems, #1947-MS), or PlexinA2-ECD-Fc (Abnova, Taipei, Taiwan #H00005362-P01) in coating buffer (BioFX Labs, # COAT-1000-01) overnight at 4° C. […] After the plates are washed, 100 μL/well of substrate solution (BioFx, #TMBW-1000-01) are added and the plates are incubated for 10 min. at room temperature. 100 μL/well of stop solution (BioFx, # LSTP-1000-01) are added to stop the reaction. The colorimetric signals are developed and read at 450 nm using a SpectraMax 190 plate reader (Molecular Devices, Sunnyvale, Calif.). c-Met antibody binding to c-Met, RON and PlexinA2 ECDs is proportional to color signal production.

Human c-Met-Flis-Fc ECD [2] = target: T3, Human c-Met-Flis-Fc ECD; assay: ELISA, coated ECD-Fc, antibody 0.002 ng/mL
Description: as §3

Human c-Met-Flis-Fc ECD [3] = target: T3, Human c-Met-Flis-Fc ECD; assay: ELISA, coated ECD-Fc, antibody 0.010 ng/mL
Description: as §3

Human c-Met-Flis-Fc ECD [4] = target: T3, Human c-Met-Flis-Fc ECD; assay: ELISA, coated ECD-Fc, antibody 0.060 ng/mL
Description: as §3

Human c-Met-Flis-Fc ECD [5] = target: T3, Human c-Met-Flis-Fc ECD; assay: ELISA, coated ECD-Fc, antibody 0.357 ng/mL
Description: as §3

Human c-Met-Flis-Fc ECD [6] = target: T3, Human c-Met-Flis-Fc ECD; assay: ELISA, coated ECD-Fc, antibody 2.143 ng/mL
Description: as §3

Human c-Met-Flis-Fc ECD [7] = target: T3, Human c-Met-Flis-Fc ECD; assay: ELISA, coated ECD-Fc, antibody 12.860 ng/mL
Description: as §3

Human c-Met-Flis-Fc ECD [8] = target: T3, Human c-Met-Flis-Fc ECD; assay: ELISA, coated ECD-Fc, antibody 77.160 ng/mL
Description: as §3

Human c-Met-Flis-Fc ECD [9] = target: T3, Human c-Met-Flis-Fc ECD; assay: ELISA, coated ECD-Fc, antibody 462.963 ng/mL
Description: as §3

Human c-Met-Flis-Fc ECD [10] = target: T3, Human c-Met-Flis-Fc ECD; assay: ELISA, coated ECD-Fc, antibody 2777.778 ng/mL
Description: as §3

Human c-Met-Flis-Fc ECD [11] = target: T3, Human c-Met-Flis-Fc ECD; assay: ELISA, coated ECD-Fc, antibody 16666.667 ng/mL
Description: as §3

Human c-Met-Flis-Fc ECD [12] = target: T3, Human c-Met-Flis-Fc ECD; assay: ELISA, coated ECD-Fc, antibody 100000.000 ng/mL
Description: as §3

Human c-Met-Flis-Fc ECD [13] = target: T3, Human c-Met-Flis-Fc ECD; assay: SPR Biacore, antibody captured, ECD-Fc analyte, 1:1 model
Description: as §1, §2

[14] = target: T4, Cynomolgus Monkey c-Met-Flis-Fc ECD (cynomolgus monkey); assay: as above
T4 construct: also called Cynomolgus Monkey cMet-ECD-Fc-Flis; cynomolgus monkey c-Met ECD
T4 sequence (chain, as listed by the source limits assumed): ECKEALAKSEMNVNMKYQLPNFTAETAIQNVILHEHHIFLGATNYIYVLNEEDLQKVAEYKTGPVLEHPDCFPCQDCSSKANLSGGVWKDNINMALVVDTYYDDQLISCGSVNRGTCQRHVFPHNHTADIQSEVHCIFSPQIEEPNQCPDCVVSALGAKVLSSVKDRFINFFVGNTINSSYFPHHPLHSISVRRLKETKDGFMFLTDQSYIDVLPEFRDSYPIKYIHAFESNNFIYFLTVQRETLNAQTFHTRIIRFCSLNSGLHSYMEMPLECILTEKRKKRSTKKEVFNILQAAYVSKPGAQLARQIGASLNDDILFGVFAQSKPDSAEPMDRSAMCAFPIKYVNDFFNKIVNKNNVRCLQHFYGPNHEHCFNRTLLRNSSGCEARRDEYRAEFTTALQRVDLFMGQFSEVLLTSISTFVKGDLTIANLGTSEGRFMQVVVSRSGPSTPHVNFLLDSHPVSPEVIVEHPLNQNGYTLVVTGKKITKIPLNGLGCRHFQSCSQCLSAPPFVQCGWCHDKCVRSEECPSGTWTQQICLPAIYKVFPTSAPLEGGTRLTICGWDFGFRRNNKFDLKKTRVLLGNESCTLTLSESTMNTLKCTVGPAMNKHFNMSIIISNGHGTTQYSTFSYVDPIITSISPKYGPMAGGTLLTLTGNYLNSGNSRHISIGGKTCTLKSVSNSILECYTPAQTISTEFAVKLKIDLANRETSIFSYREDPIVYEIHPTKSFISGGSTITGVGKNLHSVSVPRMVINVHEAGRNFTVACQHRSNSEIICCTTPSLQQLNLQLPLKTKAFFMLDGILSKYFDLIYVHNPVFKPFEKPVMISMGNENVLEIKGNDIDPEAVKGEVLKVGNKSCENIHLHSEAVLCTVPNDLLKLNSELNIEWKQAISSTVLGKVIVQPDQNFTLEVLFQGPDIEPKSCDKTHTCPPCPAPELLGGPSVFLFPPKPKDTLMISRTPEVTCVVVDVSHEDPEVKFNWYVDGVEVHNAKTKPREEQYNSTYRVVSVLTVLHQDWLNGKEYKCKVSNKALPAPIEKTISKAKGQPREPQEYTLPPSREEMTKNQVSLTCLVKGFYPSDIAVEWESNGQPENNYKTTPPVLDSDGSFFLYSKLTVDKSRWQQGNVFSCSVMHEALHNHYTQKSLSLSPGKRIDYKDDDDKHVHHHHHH
Description: as §1, §2

| Binder | binding result (Rat c-Met-Flis-Fc ECD) | binding result (mouse c-Met ECD) | Average A450 nm (Human c-Met-Flis-Fc ECD [1]) | Average A450 nm (Human c-Met-Flis-Fc ECD [2]) | Average A450 nm (Human c-Met-Flis-Fc ECD [3]) | Average A450 nm (Human c-Met-Flis-Fc ECD [4]) | Average A450 nm (Human c-Met-Flis-Fc ECD [5]) | Average A450 nm (Human c-Met-Flis-Fc ECD [6]) | Average A450 nm (Human c-Met-Flis-Fc ECD [7]) | Average A450 nm (Human c-Met-Flis-Fc ECD [8]) | Average A450 nm (Human c-Met-Flis-Fc ECD [9]) | Average A450 nm (Human c-Met-Flis-Fc ECD [10]) | Average A450 nm (Human c-Met-Flis-Fc ECD [11]) | Average A450 nm (Human c-Met-Flis-Fc ECD [12]) | Kd (Human c-Met-Flis-Fc ECD [13]) | Kd [14] | koff (Human c-Met-Flis-Fc ECD [13]) | kon (Human c-Met-Flis-Fc ECD [13]) | koff [14] | kon [14] |
| --- | --- | --- | --- | --- | --- | --- | --- | --- | --- | --- | --- | --- | --- | --- | --- | --- | --- | --- | --- | --- |
| B1 | no binding | no binding (tested: 100 nM) | 0.3 A450 nm | 0.317 A450 nm | 0.317 A450 nm | 0.484 A450 nm | 0.902 A450 nm | 2.86 A450 nm | 4 A450 nm | 4 A450 nm | 4 A450 nm | 4 A450 nm | 4 A450 nm | 4 A450 nm | < 0.1 nM | < 0.2 nM | – | – | – | – |
| B2 | no binding | no binding (tested: 100 nM) | 0.335 A450 nm | 0.369 A450 nm | 0.374 A450 nm | 0.446 A450 nm | 0.907 A450 nm | 2.89 A450 nm | 4 A450 nm | 4 A450 nm | 4 A450 nm | 4 A450 nm | 4 A450 nm | 4 A450 nm | 0.3 nM | < 0.1 nM | 3e-05 s⁻¹ | 110000 M⁻¹ s⁻¹ | < 1e-05 s⁻¹ | 103000 M⁻¹ s⁻¹ |

— patent US20100129369A1 (Eli Lilly, published 2010)
